Assay results: article PMC6144786, “DNA binding with a minimal scaffold: structure–function analysis of Lig E DNA ligases” (Nucleic Acids Research, 2018)

Experiments:
[1] = tested on: Psy-Lig K176A; experiment: MST; conditions: 5' phosphate on S24 at nick, MST: 50 mM Tris, 100 mM NaCl, 1 mM DTT, 5 mM EDTA, 1 mM ATP, 0.5% Tween, 40 nM DNA, incubated 4 C, read 25 C, EMSA: 50 mM Tris pH 8.0, 50 mM NaCl, 0.
[2] = tested on: Psy-Lig K25A; experiment: MST; conditions: 5' phosphate on S24 at nick, MST: 50 mM Tris, 100 mM NaCl, 1 mM DTT, 5 mM EDTA, 1 mM ATP, 0.5% Tween, 40 nM DNA, incubated 4 C, read 25 C, EMSA: 50 mM Tris pH 8.0, 50 mM NaCl, 0.
[3] = tested on: Psy-Lig N144A; experiment: MST; conditions: 5' phosphate on S24 at nick, MST: 50 mM Tris, 100 mM NaCl, 1 mM DTT, 5 mM EDTA, 1 mM ATP, 0.5% Tween, 40 nM DNA, incubated 4 C, read 25 C, EMSA: 50 mM Tris pH 8.0, 50 mM NaCl, 0.
[4] = tested on: Psy-Lig K193A; experiment: MST; conditions: 5' phosphate on S24 at nick, MST: 50 mM Tris, 100 mM NaCl, 1 mM DTT, 5 mM EDTA, 1 mM ATP, 0.5% Tween, 40 nM DNA, incubated 4 C, read 25 C, EMSA: 50 mM Tris pH 8.0, 50 mM NaCl, 0.
[5] = tested on: Psy-Lig K212A; experiment: MST; conditions: 5' phosphate on S24 at nick, MST: 50 mM Tris, 100 mM NaCl, 1 mM DTT, 5 mM EDTA, 1 mM ATP, 0.5% Tween, 40 nM DNA, incubated 4 C, read 25 C, EMSA: 50 mM Tris pH 8.0, 50 mM NaCl, 0.
[6] = tested on: Psy-Lig WT (Lig E DNA ligase); experiment: MST; conditions: 5' phosphate on S24 at nick, MST: 50 mM Tris, 100 mM NaCl, 1 mM DTT, 5 mM EDTA, 1 mM ATP, 0.5% Tween, 40 nM DNA, incubated 4 C, read 25 C, EMSA: 50 mM Tris pH 8.0, 50 mM NaCl, 0.
[7] = tested on: Psy-Lig S215A; experiment: MST; conditions: 5' phosphate on S24 at nick, MST: 50 mM Tris, 100 mM NaCl, 1 mM DTT, 5 mM EDTA, 1 mM ATP, 0.5% Tween, 40 nM DNA, incubated 4 C, read 25 C, EMSA: 50 mM Tris pH 8.0, 50 mM NaCl, 0.
[8] = tested on: Psy-Lig R69A; experiment: MST; conditions: 5' phosphate on S24 at nick, MST: 50 mM Tris, 100 mM NaCl, 1 mM DTT, 5 mM EDTA, 1 mM ATP, 0.5% Tween, 40 nM DNA, incubated 4 C, read 25 C, EMSA: 50 mM Tris pH 8.0, 50 mM NaCl, 0.
[9] = tested on: Psy-Lig R80A; experiment: MST; conditions: 5' phosphate on S24 at nick, MST: 50 mM Tris, 100 mM NaCl, 1 mM DTT, 5 mM EDTA, 1 mM ATP, 0.5% Tween, 40 nM DNA, incubated 4 C, read 25 C, EMSA: 50 mM Tris pH 8.0, 50 mM NaCl, 0.
[10] = target: T1, Ame-Lig (Alteromonas mediterranea, UniProt Z9I348I3L4); experiment: molecular beacon ligation assay; type: biochemical; conditions: 0.1 mM ATP, 300 nM nicked DNA substrate, 10 mM MgCl2, pH 8.0, 30 °C
T1 construct: predicted mature form, signal peptide omitted (cleavage between 21 and 22), codon-optimised synthetic gene in pDEST17; monomer in the asymmetric unit with nicked DNA
T1 sequence (Z9I348I3L4 2-297): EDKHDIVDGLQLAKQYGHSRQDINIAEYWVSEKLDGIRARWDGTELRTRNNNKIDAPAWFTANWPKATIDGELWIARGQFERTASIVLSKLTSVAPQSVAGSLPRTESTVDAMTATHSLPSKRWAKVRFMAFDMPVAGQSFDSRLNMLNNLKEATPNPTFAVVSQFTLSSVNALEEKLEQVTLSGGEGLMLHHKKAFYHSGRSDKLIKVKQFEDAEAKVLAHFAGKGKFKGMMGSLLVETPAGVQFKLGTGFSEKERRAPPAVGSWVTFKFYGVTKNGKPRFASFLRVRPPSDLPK

| Compound | K half [1] [µM] | K half [2] [µM] | K half [3] [nM] | K half [4] [nM] | K half [5] [µM] | K half [6] [nM] | K half [7] [nM] | K half [8] [µM] | K half [9] [µM] | molecular beacon ligation assay [10] |
| --- | --- | --- | --- | --- | --- | --- | --- | --- | --- | --- |
| AGGCCATGGCTGATATCGGA / TCCGAATTCGAGCTCCGTCG / CGACGGAGCTCGAATTCGGATCCGATATCAGCCATGGCCT [nicked 40-mer (MST)] | 5.17 | 3.3 | 2450 | 2550 | 7.1 | 980 | 1740 | 3.08 | 3.62 |  |
| Nc1ncnc2c1ncn2[C@@H]1O[C@H](COP(=O)(O)OP(=O)(O)OP(=O)(O)O)[C@@H](O)[C@H]1O [ATP] |  |  |  |  |  |  |  |  |  | Ligase activity of Ame-Lig and Psy-Lig mutants were measured by molecular beacon (MB) assay |
